{
  "source": "patent US20060099150A1",
  "about": "(published 2006)",
  "binders": {"B1": {"name": "single chain antibody sFv5A (scFv)", "scFv": "QVQLQQSGGGVVQPGRSLRLSCAASGFTFSSYAMHWVRQAPGKGLEWVSAISGSGGSTYYADSVKGRFTISRDNAKNSLYLQMNSLRAEDTAVYYCARDTRGYFDLWGRGTLVTVSSGGGGSGGGGSGGGGSSELTQDPAMSVALGQTVRITCQGDSLRKYHASWYQQRPRQAPRLVVYGKNERPSGIPERFSGSTSGDTASLTISGLQAEDEADYYCHSRDSNADLVVFGGGTKVTVLGAAAEQKLISEEDLNGAAHHHHHH", "notes": "also called sFv (positive control)"}, "B2": {"name": "sFv5AF-Cys (scFv)", "scFv": "DYKAKQVQLVQSGGGVVQPGRSLRLSCAASGFTFSSYAMHWVRQAPGKGLEWVSAISGSGGSTYYADSVKGRFTISRDNAKNSLYLQMNSLRAEDTAVYYCARDTRGYFDLWGRGTLVTVSSGGGGSGGGGSGGGGSSELTQDPAMSVALGQTVRITCQGDSLRKYHASWYQQRPRQAPRLVVYGKNERPSGIPERFSGSTSGDTASLTISGLQAEDEADYYCHSRDSNADLVVFGGGTKVTVLGGGGGSCAAAEQKLISEEDLNGAAHHHHHH", "notes": "also called s5AF-Cys; sFv5AF-Cys starting material"}},
  "molecular_target": "T1, pIgR Domain 6 GST (D6-GST) fusion protein, species not stated (Schistosoma japonica, UniProt P08515 1-218 = GST)",
  "T1 construct": "also called D6-GST constructs",
  "T1 sequence (P08515 whole entry, the tested form may be a part)": "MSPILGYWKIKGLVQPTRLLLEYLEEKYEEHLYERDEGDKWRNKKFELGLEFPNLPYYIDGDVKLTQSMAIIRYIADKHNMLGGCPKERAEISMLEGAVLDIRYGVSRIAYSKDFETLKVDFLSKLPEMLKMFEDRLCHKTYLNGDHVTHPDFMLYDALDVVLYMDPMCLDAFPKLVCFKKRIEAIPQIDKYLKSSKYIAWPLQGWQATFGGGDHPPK",
  "test": "SPR BIAcore, 1:1 Langmuir global fit 62.5-1000 nM; ligand not named",
  "data": [
    {"binder": "B1", "values": [
      {"measurement": "Ka", "result": "6.31e+06", "unit": "M⁻¹"},
      {"measurement": "Kd", "result": 158, "unit": "nM"},
      {"measurement": "koff", "result": 0.00464, "unit": "s⁻¹"},
      {"measurement": "kon", "result": 29300, "unit": "M⁻¹ s⁻¹"}
    ]},
    {"binder": "B2", "values": [
      {"measurement": "Ka", "result": "9.84e+06", "unit": "M⁻¹"},
      {"measurement": "Kd", "result": 102, "unit": "nM"},
      {"measurement": "koff", "result": 0.00464, "unit": "s⁻¹"},
      {"measurement": "kon", "result": 37600, "unit": "M⁻¹ s⁻¹"}
    ]}
  ]
}
